The term EC50 denotes the concentration giving half of the maximal effect. High values mean weaker potency, low ones greater potency.

The source of these data is US20140134179A1 (published 2014).

For one test, the target named is mTEM8. The test is described as follows: ELISA.
Test [1] addresses T1, hTEM8(ED)-Fc fusion protein (UniProt Q9H6X2 33-321).
T1 chain: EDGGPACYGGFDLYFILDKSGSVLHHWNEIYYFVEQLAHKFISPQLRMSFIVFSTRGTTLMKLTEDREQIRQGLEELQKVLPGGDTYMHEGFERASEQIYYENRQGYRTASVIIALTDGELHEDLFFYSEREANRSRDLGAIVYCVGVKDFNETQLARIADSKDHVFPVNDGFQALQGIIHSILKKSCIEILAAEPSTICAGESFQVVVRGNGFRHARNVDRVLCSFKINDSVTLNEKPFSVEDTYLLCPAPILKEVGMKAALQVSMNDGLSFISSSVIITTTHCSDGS
The test is described as follows: ELISA. For orientation: An ELISA detects its analyte on a solid surface through an enzyme-linked reagent.

The target in test [2] is human TEM8 on CHO cells (CHO-TEM8) (UniProt Q9H6X2 33-564). The test is described as follows: flow cytometry, inhibition of PA-FITC binding. In general terms: In flow cytometry, cells or beads pass a laser one at a time.

B1: L5 (Fab, V domains shown)
VH: QVQLVESGGGLVQPGGSLRLSCAASGFTFNSYGLSWVRQAPGKGLEWVSNISSNGSYTYYADSVKGRFTISRDNSKNTLYLQMNSLRAEDTAVYYCARAGYGLFDVWGQGTLVTVSS
VL: DIELTQPPSVSVAPGQTARISCSGDKLREYYVHWYQQKPGQAPVLVIYGDNKRPSGIPERFSGSNSGNTATLTISGTQAEDEADYYCSSWAGSRSGTVFGGGTKLTVL
In the case of B1, it took 0.22 nM to reach a half-maximal effect with mTEM8 (EC50).

B2: L1 (Fab, V domains shown)
VH: QVQLVESGGGLVQPGGSLRLSCAASGFTFNSYAMSWVRQAPGKGLEWVSLISSGSSTYYADSVKGRFTISRDNSKNTLYLQMNSLRAEDTAVYYCARAGFKFDNWGQGTLVTVSS
VL: DIELTQPPSVSVAPGQTARISCSGDSIPNYSVSWYQQKPGQAPVLVIYADSNRPSGIPERFSGSNSGNTATLTISGTQAEDEADYYCQSYDNTSPDLVFGGGTKLTVLG
As to B2, the EC50 with mTEM8 turned out to be 0.21 nM.

B3: L1 Fab (Fab, V domains shown)
VH: QVQLVESGGGLVQPGGSLRLSCAASGFTFNSYAMSWVRQAPGKGLEWVSLISSGSSTYYADSVKGRFTISRDNSKNTLYLQMNSLRAEDTAVYYCARAGFKFDNWGQGTLVTVSS
VL: DIELTQPPSVSVAPGQTARISCSGDSIPNYSVSWYQQKPGQAPVLVIYADSNRPSGIPERFSGSNSGNTATLTISGTQAEDEADYYCQSYDNTSPDLVFGGGTKLTVLG
B3: the EC50 in test [1] was 0.18 nM; in test [2] it was 0.0342 µg/mL.

B4: L2 Fab (Fab, V domains shown)
VH: QVQLKESGPALVKPTQTLTLTCTFSGFSLSTSGGGVSWIRQPPGKALEWLAHIYSNDDKSYSTSLKTRLTISKDTSKNQVVLTMTNMDPVDTATYYCARGGYFLDYWGQGTLVTVSS
VL: DIELTQPPSVSVAPGQTARISCSGDNIGGIYVHWYQQKPGQAPVLVIYADSKRPSGIPERFSGSNSGNTATLTISGTQAEDEADYYCQSYDITSLVFGGGTKLTVL
Regarding B4, the EC50 in test [2] turned out to be 0.0218 µg/mL.

B5: L2 (Fab, V domains shown)
VH: QVQLKESGPALVKPTQTLTLTCTFSGFSLSTSGGGVSWIRQPPGKALEWLAHIYSNDDKSYSTSLKTRLTISKDTSKNQVVLTMTNMDPVDTATYYCARGGYFLDYWGQGTLVTVSS
VL: DIELTQPPSVSVAPGQTARISCSGDNIGGIYVHWYQQKPGQAPVLVIYADSKRPSGIPERFSGSNSGNTATLTISGTQAEDEADYYCQSYDITSLVFGGGTKLTVL
B5: the concentration for a half-maximal effect (EC50) with mTEM8 was 0.28 nM.

B6: L3 Fab (Fab, V domains shown)
VH: QVQLQQSGPGLVKPSQTLSLTCAISGDSVSTNGAAWGWIRQSPGRGLEWLGRIYYRSKWYNDYAVSVKSRITINPDTSKNQFSLQLNSVTPEDTAVYYCARMPGGFLFDLWGQGTLVTVSS
VL: DIELTQPPSVSVAPGQTARISCSGDNIRSYYAHWYQQKPGQAPVLVIYGDSKRPSGIPERFSGSNSGNTATLTISGTQAEDEADYYCSSYASHDYVFGGGTKLTVLG
On to B6, for which the concentration for a half-maximal effect (EC50) in test [2] was 0.0364 µg/mL.

B7: L3 (Fab, V domains shown)
VH: QVQLQQSGPGLVKPSQTLSLTCAISGDSVSTNGAAWGWIRQSPGRGLEWLGRIYYRSKWYNDYAVSVKSRITINPDTSKNQFSLQLNSVTPEDTAVYYCARMPGGFLFDLWGQGTLVTVSS
VL: DIELTQPPSVSVAPGQTARISCSGDNIRSYYAHWYQQKPGQAPVLVIYGDSKRPSGIPERFSGSNSGNTATLTISGTQAEDEADYYCSSYASHDYVFGGGTKLTVLG
In the test with mTEM8, B7 had a concentration giving a half-maximal response (EC50) of 0.36 nM.
